The values that follow come from article PMC4948773, “Identification of Preferred DNA-Binding Sites for the Thermus thermophilus Transcriptional Regulator SbtR by the Combinatorial Approach REPSA” (PLoS ONE, 2016).

T1: SbtR (Thermus thermophilus HB8, UniProt Q5SLX6 1-189)
T1 sequence: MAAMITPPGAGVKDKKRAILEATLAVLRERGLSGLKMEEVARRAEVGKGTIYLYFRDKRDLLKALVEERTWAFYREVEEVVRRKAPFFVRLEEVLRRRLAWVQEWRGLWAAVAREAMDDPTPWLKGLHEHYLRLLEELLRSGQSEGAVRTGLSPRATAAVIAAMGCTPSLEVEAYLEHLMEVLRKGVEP

B1: SbtR mini probe 22-bp (dsDNA)
DNA 1: GCCCTGACTGGCCAGTCACCCG
DNA 2: CGGGTGACTGGCCAGTCAGGGC
B2: SbtR, transcriptional regulator encoded by the Thermus thermophilus HB8 TTHA0167 gene (natural protein, UniProt Q5SLX6 1-189, looked up)
chain: T1 sequence
modifications: intermolecular disulfide bond (disulfide-linked dimeric species)
notes: SbtR, TetR/AcrR family transcriptional regulator, Thermus thermophilus HB8, TTHA0167 (sbtR) gene in pET-11a; 189 amino acid residues, 21,539 Da; called wild-type SbtR; It says the plasmid holds the TTHA0167 gene and reckons the stock concentration from the 189-residue protein; also called SbtR2; SbtR dimer; source: E. coli BL21(DE3) with pET-sbtR, IPTG-induced; soluble extract heated at 70°C for …
B3: m1 (dsDNA)
DNA 1: CTAGGAATTCGTGCAGAGGTGAATAGACTGGCCAGTCATTACCATCCCTCCAGAAGCTTGGAC
DNA 2: GTCCAAGCTTCTGGAGGGATGGTAATGACTGGCCAGTCTATTCACCTCTGCACGAATTCCTAG
B4: m4 (dsDNA)
DNA 1: B3 DNA 1 with A25T, C28G
DNA 2: B3 DNA 2 with G36C, T39A
B5: m3 (dsDNA)
DNA 1: B3 DNA 1 with A25T, A27T
DNA 2: B3 DNA 2 with T37A, T39A
B6: m5 (dsDNA)
DNA 1: B3 DNA 1 with A25T, T29A
DNA 2: B3 DNA 2 with A35T, T39A
B7: m2 (dsDNA)
DNA 1: B3 DNA 1 with A25T, G26C
DNA 2: B3 DNA 2 with C38G, T39A
B8: m7 (dsDNA)
DNA 1: B3 DNA 1 with A25T, G31C
DNA 2: B3 DNA 2 with C33G, T39A
B9: m6 (dsDNA)
DNA 1: B3 DNA 1 with A25T, G30C
DNA 2: B3 DNA 2 with C34G, T39A

Positions count from the first letter of the chain named.

The target in the first data set is T1, SbtR. Briefly: EMSA; S1 complex, apparent; EMSA/REPA: 50 mM K acetate, 20 mM Tris acetate, 10 mM Mg acetate, BSA (CutSmart), pH 7.9, binding 55 C 20 min (REPA cleavage 37 C); BLI: 20 mM Tris-Cl pH 7.7, 100 mM NaCl, 1 mM EDTA, 0.05% Tween 20, 30 C (hydration step; binding temperature not separately stated); concentrations as SbtR dimer. As to conditions: protein: recombinant; tags: none stated (pET-11a, wild-type); chain copies: 2; label: 5' IRDye700 on strand 1; blunt. In general terms: Mobility shift assays separate free from complexed probe on a gel.
B1: the Kd was 5 nM.

A further data set concerns the molecule itself. Briefly: SDS-PAGE with and without reductant; Coomassie-stained 4-20% SDS-PAGE gradient gel; purified SbtR loaded under standard reducing conditions or under oxidizing conditions (Laemmli loading buffer lacking reductant).
Settings: not given
A word on the stoichiometry N: it is the number of molecules, sites or subunits per partner or assembly. As to B2, the “stoichiometry N” value was determined as 2.

A further data set concerns the target T1, SbtR. The experiment in a line: BLI; EMSA/REPA: 50 mM K acetate, 20 mM Tris acetate, 10 mM Mg acetate, BSA (CutSmart), pH 7.9, binding 55 C 20 min (REPA cleavage 37 C); BLI: 20 mM Tris-Cl pH 7.7, 100 mM NaCl, 1 mM EDTA, 0.05% Tween 20, 30 C (hydration step; binding temperature not separately stated); concentrations as SbtR dimer. As to conditions: protein: recombinant; tags: none stated (pET-11a, wild-type); chain copies: 2; label: 5' biotin-dT on strand 2 (extra 5' T in primer).
B3: the Kd stood at 0.551 nM. As to B4, the Kd is 1.24 nM.

With B5, the Kd is 2.18 nM. For B6, the Kd is 15.5 nM. Still for that read-out and setting: the value for B7 was 7.11 nM; that for B8 was 0.839 nM. On to B9, for which the Kd is 0.159 nM.
